Source: patent US20260167721A1 (ABLEXIS, published 2026)

Key:
[1] = target: T1, CD3 on human donor PBMC / Pan T effector cells (human, UniProt P07766 23-207; P09693 23-182; P04234 22-171; P20963 22-164); assay: cell-based or functional assay
[2] = target: T1, CD3 on human donor PBMC / Pan T …; assay: cell-based or functional assay; remark: listed apart in the source

T1 sequence (P07766 23-207, chain 1 of 4): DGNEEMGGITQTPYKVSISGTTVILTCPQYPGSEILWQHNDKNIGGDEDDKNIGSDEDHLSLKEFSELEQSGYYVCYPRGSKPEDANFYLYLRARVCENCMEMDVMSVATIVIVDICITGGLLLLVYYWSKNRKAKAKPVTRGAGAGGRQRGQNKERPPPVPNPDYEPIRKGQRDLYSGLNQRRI
T1 sequence (P09693 23-182, chain 2 of 4): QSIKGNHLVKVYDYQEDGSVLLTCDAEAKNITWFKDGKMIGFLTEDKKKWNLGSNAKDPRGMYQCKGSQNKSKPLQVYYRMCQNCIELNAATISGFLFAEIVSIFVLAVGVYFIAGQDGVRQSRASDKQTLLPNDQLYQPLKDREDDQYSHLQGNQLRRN
T1 sequence (P04234 22-171, chain 3 of 4): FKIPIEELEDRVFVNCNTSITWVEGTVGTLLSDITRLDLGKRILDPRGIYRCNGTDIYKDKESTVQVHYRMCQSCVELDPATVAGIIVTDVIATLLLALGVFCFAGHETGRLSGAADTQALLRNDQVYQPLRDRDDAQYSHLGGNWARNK
T1 sequence (P20963 22-164, chain 4 of 4): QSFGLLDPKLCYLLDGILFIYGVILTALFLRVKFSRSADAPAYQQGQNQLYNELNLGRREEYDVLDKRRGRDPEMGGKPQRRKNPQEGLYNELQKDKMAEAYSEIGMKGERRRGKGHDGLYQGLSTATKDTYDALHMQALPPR

Row | Cytokine Release Assay (IL2) Donor 0 EC50 [1] | Cytokine Release Assay (IL2) Donor 0 gMFI max [1] | Cytokine Release Assay (IL2) Donor 1 EC50 [1] | Cytokine Release Assay (IL2) Donor 1 gMFI max [1] | Cytokine Release Assay (IL2) Donor 2 EC50 [1] | Cytokine Release Assay (IL2) Donor 2 gMFI max [1] | Cytokine Release Assay (IL2) Donor 3 gMFI max [1] | Cytokine Release Assay (TNFα) Donor 0 EC50 [2] | Cytokine Release Assay (TNFα) Donor 0 gMFI max [2] | Cytokine Release Assay (TNFα) Donor 1 gMFI max [2] | Cytokine Release Assay (TNFα) Donor 2 EC50 [2] | Cytokine Release Assay (TNFα) Donor 2 gMFI max [2] | Cytokine Release Assay (TNFα) Donor 3 EC50 [2] | Cytokine Release Assay (TNFα) Donor 3 gMFI max [2] | Cytokine Release Assay (IL2) Donor 3 EC50 [1] | Cytokine Release Assay (TNFα) Donor 1 EC50 [2] | Binder
1 | 0.0887 nM | 69600 gMFI | 0.0832 nM | 24300 gMFI | 0.0612 nM | 30000 gMFI | 79300 gMFI | 0.136 nM | 61700 gMFI | 5330 gMFI | 0.0788 nM | 16000 gMFI | 0.0724 nM | 32800 gMFI | – | – | CD3 × CD33-BspAb90 (bispecific antibody) chain 1: not shown chain 2: EVQLVQSGAEVKKPGSSVKVSCKASGYTITDSNIHWVRQAPGQSLEWIGYIYPYNGGTDYNQKFKNRATLTVDNPTNTAYMELSSLRSEDTAFYYCVNGNPWLAYWGQGTLVTVSSASTKGPSVFPLAPSSKSTSGGTAALGCLVKDYFPEPVTVSWNSGALTSGVHTFPAVLQSSGLYSLSSVVTVPSSSLGTQTYICNVNHKPSNTKVDKRVEPKSCDKTHTCPPCPAPEFEGGPSVFLFPPKPKDTLMISRTPEVTCVVVDVSHEDPEVKFNWYVDGVEVHNAKTKPREEQYNSTYRVVSVLTVLHQDWLNGKEYKCKVSNKALPASIEKTISKAKGQPREPQVCTLPPSREEMTKNQVSLSCAVKGFYPSDIAVEWESNGQPENNYKTTPPVLDSDGSFFLVSKLTVDKSRWQQGNVFSCSVMHEALHNRFTQKSLSLSPGK chain 3: DIQLTQSPSTLSASVGDRVTITCRASESLDNYGIRFLTWFQQKPGKAPKLLMYAASNQGSGVPSRFSGSGSGTEFTLTISSLQPDDFATYYCQQTKEVPWSFGQGTKVEVKRTVAAPSVFIFPPSDEQLKSGTASVVCLLNNFYPREAKVQWKVDNALQSGNSQESVTEQDSKDSTYSLSSTLTLSKADYEKHKVYACEVTHQGLSSPVTKSFNRGEC
2 | 0.454 nM | 16900 gMFI | 0.232 nM | 13400 gMFI | – | 15900 gMFI | 18000 gMFI | – | 5210 gMFI | 4470 gMFI | – | 5500 gMFI | – | 4390 gMFI | 0.141 nM | – | CD3 × CD33-BspAb105 (bispecific antibody) chain 1: SYELTQPPSVSVSPGQTARITCSGDALPKKYAYWYQQKSGQAPVLVIYEDSKRPSGIPERFSGSSSGTMATLTISGAQVEDEADYYCYSTDSSGNHRVFGCGTKLTVLGGGGSGGGGSGGGGSGGGGSEVQLVESGGGLVKPGGSLRLSCAASGFTFSYYSMNWVRQAPGKCLEWVSSISRSTTYIYYADSVKGRFTISRDNAKNSLYLQMNSLRAEDTAVYYCARDGKGAIFLDYWGQGTLVTVSSDKTHTCPPCPAPEFEGGPSVFLFPPKPKDTLMISRTPEVTCVVVDVSHEDPEVKFNWYVDGVEVHNAKTKPREEQYNSTYRVVSVLTVLHQDWLNGKEYKCKVSNKALPASIEKTISKAKGQPREPQVYTLPPCREEMTKNQVSLWCLVKGFYPSDIAVEWESNGQPENNYKTTPPVLDSDGSFFLYSKLTVDKSRWQQGNVFSCSVMHEALHNHYTQKSLSLSPGK chain 2: EVQLVQSGAEVKKPGSSVKVSCKASGYTITDSNIHWVRQAPGQSLEWIGYIYPYNGGTDYNQKFKNRATLTVDNPTNTAYMELSSLRSEDTAFYYCVNGNPWLAYWGQGTLVTVSSASTKGPSVFPLAPSSKSTSGGTAALGCLVKDYFPEPVTVSWNSGALTSGVHTFPAVLQSSGLYSLSSVVTVPSSSLGTQTYICNVNHKPSNTKVDKRVEPKSCDKTHTCPPCPAPEFEGGPSVFLFPPKPKDTLMISRTPEVTCVVVDVSHEDPEVKFNWYVDGVEVHNAKTKPREEQYNSTYRVVSVLTVLHQDWLNGKEYKCKVSNKALPASIEKTISKAKGQPREPQVCTLPPSREEMTKNQVSLSCAVKGFYPSDIAVEWESNGQPENNYKTTPPVLDSDGSFFLVSKLTVDKSRWQQGNVFSCSVMHEALHNRFTQKSLSLSPGK chain 3: DIQLTQSPSTLSASVGDRVTITCRASESLDNYGIRFLTWFQQKPGKAPKLLMYAASNQGSGVPSRFSGSGSGTEFTLTISSLQPDDFATYYCQQTKEVPWSFGQGTKVEVKRTVAAPSVFIFPPSDEQLKSGTASVVCLLNNFYPREAKVQWKVDNALQSGNSQESVTEQDSKDSTYSLSSTLTLSKADYEKHKVYACEVTHQGLSSPVTKSFNRGEC
3 | 0.206 nM | 242000 gMFI | 0.0755 nM | 99300 gMFI | 0.0806 nM | 45200 gMFI | 300000 gMFI | 0.0814 nM | 91600 gMFI | 13000 gMFI | 0.0452 nM | 24100 gMFI | 0.046 nM | 48600 gMFI | 0.0479 nM | 0.0553 nM | CD3 × CD33-BspAb115 (bispecific antibody) chain 1: NFMLTQPHSVSESPGKTVTISCTRTSGSIASNYVQWYQQRPGSSPTTVIYEDNQRPSGVPDRFSGSIDSSSNSASLTISGLKTEDEAAYYCQSYDRSNRVFGCGTKLTVLGGGGSGGGGSGGGGSGGGGSQVQLQESGPGLVKPSETLSLTCTVSGGSISSYYWSWIRQPAGKCLEWIGRIYTSGSTKYNPSLKSRVTMSVDTSKNQFSLKLISVTAADTAVYFCARERIRDLYFDYWGQGTLVTVSSDKTHTCPPCPAPEFEGGPSVFLFPPKPKDTLMISRTPEVTCVVVDVSHEDPEVKFNWYVDGVEVHNAKTKPREEQYNSTYRVVSVLTVLHQDWLNGKEYKCKVSNKALPASIEKTISKAKGQPREPQVYTLPPCREEMTKNQVSLWCLVKGFYPSDIAVEWESNGQPENNYKTTPPVLDSDGSFFLYSKLTVDKSRWQQGNVFSCSVMHEALHNHYTQKSLSLSPGK chain 2: EVQLVQSGAEVKKPGSSVKVSCKASGYTITDSNIHWVRQAPGQSLEWIGYIYPYNGGTDYNQKFKNRATLTVDNPTNTAYMELSSLRSEDTAFYYCVNGNPWLAYWGQGTLVTVSSASTKGPSVFPLAPSSKSTSGGTAALGCLVKDYFPEPVTVSWNSGALTSGVHTFPAVLQSSGLYSLSSVVTVPSSSLGTQTYICNVNHKPSNTKVDKRVEPKSCDKTHTCPPCPAPEFEGGPSVFLFPPKPKDTLMISRTPEVTCVVVDVSHEDPEVKFNWYVDGVEVHNAKTKPREEQYNSTYRVVSVLTVLHQDWLNGKEYKCKVSNKALPASIEKTISKAKGQPREPQVCTLPPSREEMTKNQVSLSCAVKGFYPSDIAVEWESNGQPENNYKTTPPVLDSDGSFFLVSKLTVDKSRWQQGNVFSCSVMHEALHNRFTQKSLSLSPGK chain 3: DIQLTQSPSTLSASVGDRVTITCRASESLDNYGIRFLTWFQQKPGKAPKLLMYAASNQGSGVPSRFSGSGSGTEFTLTISSLQPDDFATYYCQQTKEVPWSFGQGTKVEVKRTVAAPSVFIFPPSDEQLKSGTASVVCLLNNFYPREAKVQWKVDNALQSGNSQESVTEQDSKDSTYSLSSTLTLSKADYEKHKVYACEVTHQGLSSPVTKSFNRGEC
4 | – | 13600 gMFI | 3.58 nM | 14800 gMFI | – | 12500 gMFI | 13900 gMFI | – | 5150 gMFI | 4670 gMFI | – | 4420 gMFI | – | 4110 gMFI | 1.47 nM | – | CD3 × CD33-BspAb94 (bispecific antibody) chain 1: NFMLTQPHSVSESPGKTVTISCTRSSGSIASNYVQWYQQRPGSSPTTVIYEDNQRPSGVPDRFSGSIDSSSNSASLTISGLKTEDEADYYCQSYDSSNRVFGCGTKLTVLGGGGSGGGGSGGGGSGGGGSEVQLVESGGGLVKPGGSLRLSCAASGFTFSSYTMNWVRQAPGKCLEWVSSITTSSSYIYYADSVKGRFTISRDNAKNSLYLQMNSLRAEDTAVYYCARVTFDAFDIWGQGTMVTVSSDKTHTCPPCPAPEFEGGPSVFLFPPKPKDTLMISRTPEVTCVVVDVSHEDPEVKFNWYVDGVEVHNAKTKPREEQYNSTYRVVSVLTVLHQDWLNGKEYKCKVSNKALPASIEKTISKAKGQPREPQVYTLPPCREEMTKNQVSLWCLVKGFYPSDIAVEWESNGQPENNYKTTPPVLDSDGSFFLYSKLTVDKSRWQQGNVFSCSVMHEALHNHYTQKSLSLSPGK chain 2: EVQLVQSGAEVKKPGSSVKVSCKASGYTITDSNIHWVRQAPGQSLEWIGYIYPYNGGTDYNQKFKNRATLTVDNPTNTAYMELSSLRSEDTAFYYCVNGNPWLAYWGQGTLVTVSSASTKGPSVFPLAPSSKSTSGGTAALGCLVKDYFPEPVTVSWNSGALTSGVHTFPAVLQSSGLYSLSSVVTVPSSSLGTQTYICNVNHKPSNTKVDKRVEPKSCDKTHTCPPCPAPEFEGGPSVFLFPPKPKDTLMISRTPEVTCVVVDVSHEDPEVKFNWYVDGVEVHNAKTKPREEQYNSTYRVVSVLTVLHQDWLNGKEYKCKVSNKALPASIEKTISKAKGQPREPQVCTLPPSREEMTKNQVSLSCAVKGFYPSDIAVEWESNGQPENNYKTTPPVLDSDGSFFLVSKLTVDKSRWQQGNVFSCSVMHEALHNRFTQKSLSLSPGK chain 3: DIQLTQSPSTLSASVGDRVTITCRASESLDNYGIRFLTWFQQKPGKAPKLLMYAASNQGSGVPSRFSGSGSGTEFTLTISSLQPDDFATYYCQQTKEVPWSFGQGTKVEVKRTVAAPSVFIFPPSDEQLKSGTASVVCLLNNFYPREAKVQWKVDNALQSGNSQESVTEQDSKDSTYSLSSTLTLSKADYEKHKVYACEVTHQGLSSPVTKSFNRGEC
